Source: patent publication US20130171217A1, “ENZYMATIC PERACID GENERATION FOR USE IN SKIN CARE PRODUCTS” (E I DU PONT DE NEMOURS AND COMPANY, priority 2010, published 2013)
Marks after values point to notes of the source that are not given here.

Key:
[1] = Single fiber tensile strength after one-step enzymatic application
Description: Hair samples were cut into pieces 4-inches in length. The denier number (liner mass density) of each hair fiber was measured by Textechno Vibromat Instrument (Textechno Herbert Stein GmbH & Co. KG; Germany). The hair fibers were tested according to ASTM D 3822-01 (“Tensile Properties of Single Textile Fibers”; ASTM International, West Conshohocken, Pa., 2001), on an Instron testing system (Instron Model 1122 Tester; Instron, Mass.) at about 70° F. (approximately 21° C.) and 65% relative humidity. The treated area of the hair sample was placed in the middle of the gauge and both ends were gripped on the test heads. Both fiber ends were attached on a piece of tape, respectively, for easy handling and gripping on the test heads. The test used 2-inch (5.1 cm) gauge length, […], and 1.2 inch/min (3 cm/min) pulling rate. The force-strain curve of the fiber was recorded during the test. The tenacity at maximum (gf/den) was calculated by dividing maximum force (gf) by denier number (den). Note that (gf/den)/11.33=Newtons/tex (N/tex).
The first method (referred to herein as the “one-step approach”) comprises combining different amounts of at least one CE-7 perhydrolase with triacetin (an example of a suitable ester substrate) and hydrogen peroxide to generate peracetic acid. Hair bundles were inserted into “one step approach” solutions for 15 min immediately after mixing the enzyme solution with triacetin solution (final concentration was about 100 mM) and H2O2 solution (final concentration was about 250 mM). The hair samples were rinsed with water and dried. The method was repeated for another 15 times (total application was 16 times). In one experiment, two perhydrolase enzymes were used, i.e., untargeted T. maritima variant C277S (“C277S”; “PAH”; SEQ ID NO: 293) and “C277S-HC263” (SEQ ID NO: 288). The concentration of peracetic acid in solution after 15 min was evaluated by HPLC.

[2] = Perhydrolase activity remaining bound to hair, ABTS assay; type: binding, human
Description: Ten mg of human hair was submerged in 2 mL of a binding solution containing 50 μg/mL of the Thermotoga maritima perhydrolase targeted to hair via the hair binding peptide HC263 (C277S-HC263; SEQ ID NO: 288; also referred to herein as “HC1121”) in 50 mM pH 7.2 potassium phosphate buffer containing 5% of the test surfactant. The test surfactants were two nonionic surfactants: TWEEN®-20 (Sigma, St Louis, Mo.), and TRITON®-X 100 (Aldrich, St Louis, Mo.), and two ionic surfactants: CHEMBETAINE™ CAD (Cocamidopropyl betaine; Lubrizol, Wickliffe, Ohio) and RHODAPEX® ES-2K (sodium laurel ether sulfate; Rhodia Novecare, Cranbury, N.J.).
Hair was incubated in the binding solution at room temperature (˜22° C.) with gentle agitation for 30 minutes, at which time the solution was removed by aspiration and the hair rinsed with 1% TWEEN®-20 in 50 mM pH 7.2 potassium phosphate buffer. The hair was removed from the tube, blotted dry with paper towel, and transferred to a new set of tubes. The hair was rinsed once with 1% TWEEN®-20 in 50 mM pH 7.2 potassium phosphate buffer and then rinsed three times with 50 mM pH 7.2 potassium phosphate buffer. Perhydrolase activity remaining bound to the hair was determined by the ABTS assay.
The ABTS assay was performed as follows: hair samples treated as described above were transferred to new 2-mL microcentrifuge tubes (Eppendorf Protein LoBind; Eppendorf North America, Hauppauge, N.Y.) To each tube was added 480 μL of PAH buffer (50 mM potassium phosphate, pH 7.2), 14 μL of 39% hydrogen peroxide (Sigma 3410), and 6 μL triacetin (Sigma-Aldrich W200700). The perhydrolase reaction was allowed to proceed for 10 minutes at room temperature (˜22-25° C.). The reaction was stopped by diluting aliquots 10×, 100× and 1000× with 10 mM phosphoric acid. For detection 50 μL of 1 M acetic acid, 50 μL of 40 mg/mL potassium iodide, and 50 μL of 4 mM ABTS (2,2′-azino-bis(3-ethylbenzthiazoline-6-sulphonic acid; Sigma, St Louis, Mo.) were added to 50 μL of the above dilutions. Color was allowed to develop for 10 minutes and read in a spectrophotometer at 405 nm. Values from no-enzyme controls were subtracted to yield values attributable only to enzyme activity. A standard curve of OD 405 nm vs PAA concentration in ppm yielded a conversion factor of 8.75, such that an OD 405 nm of 1.0 corresponded to approximately 8.75 ppm PAA. This value was then multiplied by the appropriate dilution to arrive at the PAA concentration in the perhydrolase reaction.
The Thermotoga maritima perhydrolase targeted to hair via the hair binding peptide HC263 (C277S-HC263; SEQ ID NO: 288) was diluted to 50 μg/mL in a solution of 5% PEG-80 sorbitan laurate in 100 mM citrate-phosphate buffer adjusted to pH 4.9, pH 5.5, pH 6.0, or pH 7.0. Ten mg of human hair was added to 2 mL of the above formulations and incubated with gentle agitation for 5 minutes at room temperature to allow enzyme binding to hair. A no-enzyme control sample was included with each pH. After binding, the binding solution was removed by aspiration and the hair was washed with 2 mL of 1% TWEEN®-20 in 50 mM pH 7.2 potassium phosphate buffer. The hair was removed from the tube, blotted dry with paper towel, and transferred to a new set of tubes. The hair was rinsed once with 1% TWEEN®-20 in 50 mM pH 7.2 potassium phosphate buffer and then rinsed three time with 50 mM pH 7.2 potassium phosphate buffer. Perhydrolase activity remaining bound to the hair was determined by the ABTS assay. The results are given as ppm PAA produced at 10 minutes (after subtraction of the no-enzyme control values)
The Thermotoga maritima perhydrolase targeted to hair via the hair binding peptide HC263 (C277S-HC263; SEQ ID NO: 288) was diluted to 50 μg/mL in a solution of 5% PEG-80 sorbitan laurate in 100 mM citrate-phosphate buffer adjusted to pH 6.0. […]

[3] = 50 μg/mL, pH 6.0, binding 1 min, at 10 minutes

B1: C277S: non-targeted C277S variant of the Thermotoga maritima perhydrolase, un-targeted control (protein, listed as Thermotoga maritima)
chain: MAFFDLPLEELKKYRPERYEEKDFDEFWEETLAESEKFPLDPVFERMESHLKTVEAYDVTFSGYRGQRIKGWLLVPKLEEEKLPCVVQYIGYNGGRGFPHDWLFWPSMGYICFVMDTRGQGSGWLKGDTPDYPEGPVDPQYPGFMTRGILDPRTYYYRRVFTDAVRAVEAAASFPQVDQERIVIAGGSQGGGIALAVSALSKKAKALLCDVPFLCHFRRAVQLVDTHPYAEITNFLKTHRDKEEIVFRTLSYFDGVNFAARAKIPALFSVGLMDNISPPSTVFAAYNYYAGPKEIRIYPYNNHEGGGSFQAVEQVKFLKKLFEKG
Ten. @ Max ([1]; 0.05 mg/mL enzyme, urea 10 wt %, 15 min × 16): 0.3 gf/den
Ten. @ Max ([1]; 0.25 mg/mL enzyme, urea 10 wt %, 15 min × 16, average of less than 3 strands): 0.6^# gf/den
Ten. @ Max ([1]; 0.5 mg/mL enzyme, urea 10 wt %, 15 min × 16): 0.6 gf/den

B2: SEQ ID NO: 323: S54V variant of the aryl esterase from Mycobacterium smegmatis fused to hair binding domain HC263 via a flexible linker (protein)
chain: MAKRILCFGDSLTWGWVPVEDGAPTERFAPDVRWTGVLAQQLGADFEVIEEGLVARTTNIDDPTDPRLNGASYLPSCLATHLPLDLVIIMLGTNDTKAYFRRTPLDIALGMSVLVTQVLTSAGGVGTTYPAPKVLVVSPPPLAPMPHPWFQLIFEGGEQKTTELARVYSALASFMKVPFFDAGSVISTDGVDGIHFTEANNRDLGVALAEQVRSLLGPGSGGAGSPGSAGGPGSPSAQSQLPDKHSGLHERAPQRYGPEPEPEPEPIPEPPKEAPVVIEKPKPKPKPKPKPPAHDHKNQKETHQRHAAGSGGGGSPHHHHHH
ppm PAA ([2]; 50 μg/mL, binding 1 min, hair with no PAA treatment): 269 ppm
ppm PAA ([2]; 50 μg/mL, binding 1 min, hair with one PAA treatment (0.2% PAA, 1 hr)): 526 ppm
ppm PAA ([2]; 50 μg/mL, binding 1 min, hair with two PAA treatments): 702 ppm
OD 405nm [2, 3]: 0.237
Peracetic acid [2, 3]: 207 ppm

B3: C277S-HC263: C277S variant of Thermotoga maritima perhydrolase fused via a flexible linker to hair-binding domain HC263 (protein)
chain: MAFFDLPLEELKKYRPERYEEKDFDEFWEETLAESEKFPLDPVFERMESHLKTVEAYDVTFSGYRGQRIKGWLLVPKLEEEKLPCVVQYIGYNGGRGFPHDWLFWPSMGYICFVMDTRGQGSGWLKGDTPDYPEGPVDPQYPGFMTRGILDPRTYYYRRVFTDAVRAVEAAASFPQVDQERIVIAGGSQGGGIALAVSALSKKAKALLCDVPFLCHFRRAVQLVDTHPYAEITNFLKTHRDKEEIVFRTLSYFDGVNFAARAKIPALFSVGLMDNISPPSTVFAAYNYYAGPKEIRIYPYNNHEGGGSFQAVEQVKFLKKLFEKGGPGSGGAGSPGSAGGPGSPSAQSQLPDKHSGLHERAPQRYGPEPEPEPEPIPEPPKEAPVVIEKPKPKPKPKPKPPAHDHKNQKETHQRHAAGSGGGGSPHHHHHH
Ten. @ Max ([1]; 0.05 mg/mL enzyme, urea 0 wt %, 15 min × 16): 1.0 gf/den
Ten. @ Max ([1]; 0.25 mg/mL enzyme, urea 0 wt %, 15 min × 16, average of less than 3 strands): 0.4^# gf/den
Ten. @ Max ([1]; 0.5 mg/mL enzyme, urea 0 wt %, 15 min × 16): 0.7 gf/den
Perhydrolase Activity Retained on Hair, ppm PAA ([2]; 50 μg/mL enzyme bound 30 min in 5% CHEMBETAINE™ CAD): 455 ppm
Perhydrolase Activity Retained on Hair, ppm PAA ([2]; 50 μg/mL enzyme bound 30 min in 5% RHODAPEX® ES-2K): 315 ppm
Perhydrolase Activity Retained on Hair, ppm PAA ([2]; 50 μg/mL enzyme bound 30 min in 5% TRITON®-X 100): 1540 ppm
Perhydrolase Activity Retained on Hair, ppm PAA ([2]; 50 μg/mL enzyme bound 30 min in 5% TWEEN®-20): 2126 ppm
ppm PAA ([2]; 50 μg/mL, 5% PEG-80 sorbitan laurate pH 6.0, binding 10 min, PAA at 10 minutes): 581 ppm
Perhydrolase Activity Deposited on Hair, ppm PAA ([2]; 50 μg/mL, 5% PEG-80 sorbitan laurate pH 6.0, binding time 0.5 min): 954 ppm
Perhydrolase Activity Deposited on Hair, ppm PAA ([2]; 50 μg/mL, 5% PEG-80 sorbitan laurate, binding 5 min, pH 4.9): 437 ppm
Perhydrolase Activity Deposited on Hair, ppm PAA ([2]; binding 5 min, pH 5.5): 1312 ppm
Perhydrolase Activity Deposited on Hair, ppm PAA ([2]; binding 5 min, pH 6.0): 1137 ppm
Perhydrolase Activity Deposited on Hair, ppm PAA ([2]; binding 5 min, pH 7.0): 385 ppm
values obtained (ABTS assay) ([2]; bound in 5% CHEMBETAINE™ CAD): 0.52
values obtained (ABTS assay) ([2]; bound in 5% RHODAPEX® ES-2K): 0.36
values obtained (ABTS assay) ([2]; bound in 5% TRITON®-X 100): 1.76
values obtained (ABTS assay) ([2]; bound in 5% TWEEN®-20): 2.43
Perhydrolase Activity Deposited on Hair, ppm PAA ([2]; pH 6.0, binding time 1 min): 962 ppm
Perhydrolase Activity Deposited on Hair, ppm PAA ([2]; pH 6.0, binding time 2 min): 988 ppm
Perhydrolase Activity Deposited on Hair, ppm PAA ([2]; pH 6.0, binding time 5 min): 1093 ppm
